Measurements taken from publication PMC12719470.

Molecular target: Nanobody-161 IgG1 Y105G
Assay: BLI; 30 nM Nanobody-161 IgG1 or mutant immobilised on Protein A biosensors (Gator); 4800 nM-300 nM TNFR2-His in Q Buffer (PBS, 0.02% Tween 20, 0.2% BSA); 25 °C; association 120 s, dissociation 180 s; global 1:1 Langmuir fit

Sequence of TNFR2-His protein (P20333 23-461): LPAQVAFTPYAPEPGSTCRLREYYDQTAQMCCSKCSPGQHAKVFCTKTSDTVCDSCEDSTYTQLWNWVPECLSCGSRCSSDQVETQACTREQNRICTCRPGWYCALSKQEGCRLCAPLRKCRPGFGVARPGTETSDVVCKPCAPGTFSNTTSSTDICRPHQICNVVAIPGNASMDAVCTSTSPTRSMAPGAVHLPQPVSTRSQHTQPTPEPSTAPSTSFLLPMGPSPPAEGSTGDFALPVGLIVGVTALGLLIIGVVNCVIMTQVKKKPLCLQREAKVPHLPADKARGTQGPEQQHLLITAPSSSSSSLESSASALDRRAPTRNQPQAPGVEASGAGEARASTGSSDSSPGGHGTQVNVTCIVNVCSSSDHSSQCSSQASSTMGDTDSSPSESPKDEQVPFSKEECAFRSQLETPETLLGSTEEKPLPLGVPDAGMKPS
Sequence of Nanobody-161 IgG1 Y105G (heavy, as listed by the source): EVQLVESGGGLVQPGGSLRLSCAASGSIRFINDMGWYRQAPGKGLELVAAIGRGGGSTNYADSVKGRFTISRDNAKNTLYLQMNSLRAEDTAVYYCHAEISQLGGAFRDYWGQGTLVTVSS

TNFR2-His protein (from UniProt P20333 23-461) (receptor)
Kd: 214 µM | koff: 0.0917 s⁻¹ | kon: 429 M⁻¹ s⁻¹
